Laboratory results from paper PMC4330346, “Function of the N-terminal segment of the RecA-dependent nuclease Ref” (Nucleic Acids Research, 2015).

Tests used:
[1] = target: ϕW39 R11C Ref (bacteriophage ϕW39); test: cross-linking; non-specific cross-linker disuccinimidyl glutarate (DSG) to trap the oligomeric states of Ref (Supplementary Figure S2)
[2] = target: ϕW39 R11C Ref (bacteriophage ϕW39); test: non-reducing SDS-PAGE; Ref dialysed free of DTT; 6.5 μg Ref, 50 mM sodium phosphate pH 7.5, 75 mM sodium chloride, no DTT; non-reducing cracking buffer, 4–15% gradient SDS-PAGE; the dimer is taken as disulfide-linked; 10 mM DTT substantially reduced the dimers of P1 WT Ref and ϕW39 R11C
[3] = target: the molecule itself; test: AUC; preliminary ultracentrifugation, unpublished data; conditions not given
P1 deltaN76 Ref = target: T1, P1 deltaN76 Ref (bacteriophage P1, UniProt P35926 77-186, del1-76); test: fluorescence polarization; 25 mM Tris-acetate pH 8.5, 3 mM potassium glutamate, 15 mM magnesium acetate, 5% w/v glycerol, 2 nM DNA, Ref 0.5-10000 nM, 15 min at room temperature, read at 25 C; one-site fit with Hill coefficient; conditions: protein: recombinant, tags: none (native form)
T1 sequence: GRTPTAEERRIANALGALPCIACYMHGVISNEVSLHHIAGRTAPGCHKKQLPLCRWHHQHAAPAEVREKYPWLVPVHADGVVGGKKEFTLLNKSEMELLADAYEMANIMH

phiW39 deltaN74 Ref = target: T2, phiW39 deltaN74 Ref (bacteriophage phiW39, R86T;A93T;N107E;A115S); test: as above; conditions: protein: recombinant, tags: none (native form)
T2 sequence: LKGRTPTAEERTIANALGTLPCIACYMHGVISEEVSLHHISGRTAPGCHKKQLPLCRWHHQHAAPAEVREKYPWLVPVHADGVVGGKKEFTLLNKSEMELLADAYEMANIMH

phiW39 WT Ref = target: T3, phiW39 WT Ref (bacteriophage phiW39, I8L;C11R;K13E;V34A;T46S;L47I;R86T;A93T;N107E;A115S); test: fluorescence polarization; apparent Kd; 25 mM Tris-acetate pH 8.5, 3 mM potassium glutamate, 15 mM magnesium acetate, 5% w/v glycerol, 2 nM DNA, Ref 0.5-10000 nM, 15 min at room temperature, read at 25 C; one-site fit with Hill coefficient; conditions: protein: recombinant, tags: none (native form)
T3 sequence: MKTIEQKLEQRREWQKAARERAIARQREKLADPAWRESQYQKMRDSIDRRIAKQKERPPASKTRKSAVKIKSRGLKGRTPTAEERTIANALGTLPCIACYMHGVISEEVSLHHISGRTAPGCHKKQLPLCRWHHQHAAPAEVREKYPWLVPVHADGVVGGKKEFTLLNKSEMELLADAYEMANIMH

phiW39 deltaN59 Ref = target: T4, phiW39 deltaN59 Ref (bacteriophage phiW39, R86T;A93T;N107E;A115S); test: fluorescence polarization; Kd value only in Figure 2C; 25 mM Tris-acetate pH 8.5, 3 mM potassium glutamate, 15 mM magnesium acetate, 5% w/v glycerol, 2 nM DNA, Ref 0.5-10000 nM, 15 min at room temperature, read at 25 C; one-site fit with Hill coefficient; conditions: protein: recombinant; tags: none (native form); label: 5' 6-FAM; single strand
T4 sequence: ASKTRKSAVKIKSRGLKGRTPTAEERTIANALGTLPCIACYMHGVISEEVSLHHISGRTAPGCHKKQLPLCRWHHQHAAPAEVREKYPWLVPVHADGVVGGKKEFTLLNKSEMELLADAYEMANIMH

[4] = label: 5' 6-FAM on strand 1, blunt

In the case of ϕW39 R11C Ref (enzyme), the stoichiometry N [1] is reported as 2 and the stoichiometry N [2] is reported as 2.

B1: bacteriophage P1 Ref (recombination enhancement function) protein, wild type (enzyme, UniProt P35926 1-186, looked up)
chain: MKTIEQKIEQCRKWQKAARERAIARQREKLADPVWRESQYQKMRDTLDRRIAKQKERPPASKTRKSAVKIKSRGLKGRTPTAEERRIANALGALPCIACYMHGVISNEVSLHHIAGRTAPGCHKKQLPLCRWHHQHAAPAEVREKYPWLVPVHADGVVGGKKEFTLLNKSEMELLADAYEMANIMH
notes: has Cys11; Purified in native form (no tag)
B1 was tested, and the “stoichiometry N” value [3] was 2.

B2: AJM25 71mer ssDNA (ssDNA)
DNA: CAGAAGTAAGTTGGCCGCAGTGTTATCACTCATGGTTATGGCAGCACTGCATAATTCTCTTACTGTCATGC
In the case of B2, the binding result (P1 deltaN76 Ref; label: 5' 6-FAM, single strand) is reported as “no binding”, the binding result (phiW39 deltaN74 Ref; label: 5' 6-FAM, single strand) is reported as “no binding” and the Kd (phiW39 WT Ref; label: 5' 6-FAM, single strand) is reported as 28 ± 2 nM. For the same molecule, the binding signal (phiW39 deltaN59 Ref) was ~40 fold reduction in affinity.

B3: AJM25/AJG52 71 bp dsDNA (dsDNA)
DNA 1: CAGAAGTAAGTTGGCCGCAGTGTTATCACTCATGGTTATGGCAGCACTGCATAATTCTCTTACTGTCATGC
DNA 2: GCATGACAGTAAGAGAATTATGCAGTGCTGCCATAACCATGAGTGATAACACTGCGGCCAACTTACTTCTG
For B3, the binding result (P1 deltaN76 Ref; [4]) was “no binding”, the binding result (phiW39 deltaN74 Ref; [4]) was “no binding” and the Kd (phiW39 WT Ref; [4]) was 24 ± 1 nM.
